From patent publication US20240270857A1 (CHIA TAI TIANQING PHARMACEUTICAL GROUP, published 2024)

T1: IL-36R naturally expressed on OVCAR8 cells and on normal human epidermal keratinocytes (NHK cells) (human, UniProt Q9HB29 20-575)
T1 sequence (looked up): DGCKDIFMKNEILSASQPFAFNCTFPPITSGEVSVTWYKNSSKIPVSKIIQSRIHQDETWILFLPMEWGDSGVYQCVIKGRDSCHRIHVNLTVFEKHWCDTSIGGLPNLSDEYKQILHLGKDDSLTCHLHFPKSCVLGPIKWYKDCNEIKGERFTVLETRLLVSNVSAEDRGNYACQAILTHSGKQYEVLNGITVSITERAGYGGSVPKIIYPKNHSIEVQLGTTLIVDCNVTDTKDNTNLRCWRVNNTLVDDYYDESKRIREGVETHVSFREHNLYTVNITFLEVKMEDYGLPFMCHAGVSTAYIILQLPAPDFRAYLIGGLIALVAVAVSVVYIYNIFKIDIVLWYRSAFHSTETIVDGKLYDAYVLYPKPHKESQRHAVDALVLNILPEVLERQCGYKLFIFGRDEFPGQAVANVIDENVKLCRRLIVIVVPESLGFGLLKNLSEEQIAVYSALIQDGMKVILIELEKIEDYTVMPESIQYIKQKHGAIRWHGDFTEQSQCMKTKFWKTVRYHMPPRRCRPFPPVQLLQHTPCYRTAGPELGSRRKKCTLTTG

T2: Human IL-1Rrp2/IL-1R6 protein, His Tag (ACROBiosystems, IL2-H52H6) (human, UniProt Q9HB29 20-335)
T2 construct: Bought protein; the soluble protein is likely only the extracellular part; also called hIL-36R; human IL36R antigen; not shown: His tag
T2 sequence: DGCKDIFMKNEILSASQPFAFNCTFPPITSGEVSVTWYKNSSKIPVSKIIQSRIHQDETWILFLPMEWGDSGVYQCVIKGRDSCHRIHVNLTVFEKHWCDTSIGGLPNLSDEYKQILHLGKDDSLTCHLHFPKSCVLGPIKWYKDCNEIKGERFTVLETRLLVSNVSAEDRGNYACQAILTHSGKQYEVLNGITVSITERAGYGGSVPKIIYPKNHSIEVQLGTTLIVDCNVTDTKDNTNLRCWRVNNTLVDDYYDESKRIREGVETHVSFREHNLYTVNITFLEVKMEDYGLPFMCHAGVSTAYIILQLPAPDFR


How the values were obtained:
[1] = biological target: T1, IL-36R naturally expressed on OVCAR8 …; test: cell-based or functional assay
[2] = biological target: T2, Human IL-1Rrp2/IL-1R6 protein, His Tag …; test: BLI (ForteBio Octet), antibody on ProA sensor, 1:1 model
Protocol: The affinity of anti-IL-36R antibodies to CynoIL36R-ECD mFc and human IL-1Rrp2/IL-IR6 protein, His Tag (ACROBiosystems, IL2-H52H6) was measured by a ForteBio molecular interaction instrument. […] And then the biosensor was used to bind CynoIL36R-ECD mFc or human IL-1Rrp2/IL-1R6 protein, His Tag which was diluted by a gradient (the initial concentration was 200 nM, 2-fold gradient dilution), the response signals were detected in real time using a Fortebio molecular interaction instrument (SARTORIUS, octet red 96e), and association and dissociation curves were obtained. After the completion of dissociation in each cycle, the biosensor was regenerated for the next capture; the procedure was repeated until the affinity of the different anti-IL-36R antibodies for IL-36R was determined. The resulting data were analyzed by Fortebio Data Analysis 11.0 software in a 1:1 (Langmuir) binding model to determine kₐ (kₒₙ) and kd (koff) values, and the dissociation constant KD was calculated by KD=kd/kₐ. The detection method essentially followed the manufacturer's recommendations, and more information could be found at www.fortebio.com.
Affinity, binding and blocking assays for humanized antibodies hz72C1-1.1, hz72C1-1.2, hz72C1-1.3, hz72C1-2.1, hz72C1-2.2 and hz72C1-2.3 as well as hz84C4-1.1, hz84C4-1.2, hz84C4-1.3, hz84C4-1.4, hz84C4-1.5, hz84C4-2.1, hz84C4-2.2, hz84C4-2.3, hz84C4-2.4 and hz84C4-2.5 were performed according to the methods of Example 4, Example 5. Example 6, Example 7 and Example 8.

Row | IC50 (M); hIL36α; IL-8 production [1] [M] | IC50 (M); hIL36αβγ; IL-8 production [1] [M] | IC50 (M); hIL36β; IL-8 production [1] [M] | IC50 (M); hIL36γ; IL-8 production [1] [M] | Maximum inhibition rate %; hIL36α; IL-8 production [1] [%] | Maximum inhibition rate %; hIL36αβγ; IL-8 production [1] [%] | Maximum inhibition rate %; hIL36β; IL-8 production [1] [%] | Maximum inhibition rate %; hIL36γ; IL-8 production [1] [%] | Kd [2] [pM] | koff [2] [s⁻¹] | kon [2] [M⁻¹ s⁻¹] | IC50; hIL36γ; IL-8 production [1] [pM] | Binder
1 | 6.38e-12 | 6.51e-12 | 7.61e-12 | 4.77e-12 | 99.7 | 99.9 | 99.3 | 99.6 | 958 | 0.000102 | 107000 |  | hz84C4-1.1 (antibody, human IgG4 S228P, kappa, V domains shown, Humanized, human IgG4 / kappa) VH: QVQLVQSGAEVKKPGASVKVSCKASGYFFTSYWMNWVRQAPGQGLEWMGMIHPYDSETRYAQKFQGRVTMTVDKSTSTVYMELSSLRSEDTAVYYCASSTTAFAYWGQGTLVTVSS VL: DIQMTQSPSSLSASVGDRVTITCRASQDIGNALNWYQQKPGKAPKRLIYATSSLDPGVPSRFSGSRSGTDFTLTISSLQPEDFATYYCLQYASSPYTFGQGTKVEIKR
2 | 1.19e-11 | 1.31e-11 | 8.59e-12 | 8.61e-12 | 99.2 | 99.2 | 98.5 | 98.7 | 1550 | 0.000142 | 91500 |  | hz84C4-2.2 (antibody, human IgG4 S228P, kappa, V domains shown, Humanized, human IgG4 / kappa) VH: QVQLVQSGAEVKKPGASVKVSCKASGYFFTSYWMNWVRQAPGQGLEWMGYIHPYDSETRYAQKFQGRVTMTVDKSTSTVYMELSSLRSEDTAVYYCASSTTAFAYWGQGTLVTVSS VL: DIQMTQSPSSLSASVGDRVTITCRASQDIGNALNWLQQKPGKAPKRLIYATSSLDPGVPSRFSGSRSGTDYTLTISSLQPEDFATYYCLQYASSPYTFGQGTKVEIKR
3 | 8.5e-12 | 7.75e-12 | 1.6e-12 | 8.99e-12 | 99.1 | 99.2 | 98.9 | 99.5 | 1610 | 0.000161 | 100000 |  | hz84C4-1.2 (antibody, human IgG4 S228P, kappa, V domains shown, Humanized, human IgG4 / kappa) VH: QVQLVQSGAEVKKPGASVKVSCKASGYFFTSYWMNWVRQAPGQGLEWMGYIHPYDSETRYAQKFQGRVTMTVDKSTSTVYMELSSLRSEDTAVYYCASSTTAFAYWGQGTLVTVSS VL: DIQMTQSPSSLSASVGDRVTITCRASQDIGNALNWYQQKPGKAPKRLIYATSSLDPGVPSRFSGSRSGTDFTLTISSLQPEDFATYYCLQYASSPYTFGQGTKVEIKR
4 |  | 5.33e-12 |  | ~6.46e-12 | 20.6 | 44.2 | 21.8 | 59.5 | 527 | 3.26e-05 | 61900 |  | hz84C4-1.3 (antibody, human IgG4 S228P, kappa, V domains shown, Humanized, human IgG4 / kappa) VH: QVQLVQSGAEVKKPGASVKVSCKASGYFFTSYWMNWVRQAPGQGLEWMGMIYPYDSETRYAQKFQGRVTMTVDKSTSTVYMELSSLRSEDTAVYYCASSTTAFAYWGQGTLVTVSS VL: DIQMTQSPSSLSASVGDRVTITCRASQDIGNALNWYQQKPGKAPKRLIYATSSLDPGVPSRFSGSRSGTDFTLTISSLQPEDFATYYCLQYASSPYTFGQGTKVEIKR
5 | 1.42e-11 | 1.12e-11 | 1.46e-11 | 7.75e-12 | 99.5 | 98.9 | 98.5 | 99.4 | 1980 | 0.000236 | 119000 |  | hz84C4-1.4 (antibody, human IgG4 S228P, kappa, V domains shown, Humanized, human IgG4 / kappa) VH: QVQLVQSGAEVKKPGASVKVSCKASGYYFTSYWMNWVRQAPGQGLEWMGMIHPYDSETRLAQKFKGRVTMTVDKSTSTVYMELSSLRSEDTAVYYCASSTTAFAYWGQGTLVTVSS VL: DIQMTQSPSSLSASVGDRVTITCRASQDIGNALNWYQQKPGKAPKRLIYATSSLDPGVPSRFSGSRSGTDFTLTISSLQPEDFATYYCLQYASSPYTFGQGTKVEIKR
6 | 8.48e-12 | 7.24e-12 | 1.06e-11 | 5.29e-12 | 99.5 | 99.3 | 99.2 | 99.6 | 1340 | 0.000134 | 100000 |  | hz84C4-1.5 (antibody, human IgG4 S228P, kappa, V domains shown, Humanized, human IgG4 / kappa) VH: QVQLVQSGAEVKKPGASVKVSCKVSGYFFTSYWMNWVNQAPGQGLEWMGMIHPYDSETRLAQKFKGRVTMTVDKSTSTVYMELSSLRSEDTAVYYCASSTTAFAYWGQGTLVTVSS VL: DIQMTQSPSSLSASVGDRVTITCRASQDIGNALNWYQQKPGKAPKRLIYATSSLDPGVPSRFSGSRSGTDFTLTISSLQPEDFATYYCLQYASSPYTFGQGTKVEIKR
7 | 1.09e-11 | 3.66e-12 | 5.7e-12 | 6.45e-12 | 99.9 | 99.9 | 99.3 | 99.6 | 1220 | 0.000116 | 94500 |  | hz84C4-2.1 (antibody, human IgG4 S228P, kappa, V domains shown, Humanized, human IgG4 / kappa) VH: QVQLVQSGAEVKKPGASVKVSCKASGYFFTSYWMNWVRQAPGQGLEWMGMIHPYDSETRYAQKFQGRVTMTVDKSTSTVYMELSSLRSEDTAVYYCASSTTAFAYWGQGTLVTVSS VL: DIQMTQSPSSLSASVGDRVTITCRASQDIGNALNWLQQKPGKAPKRLIYATSSLDPGVPSRFSGSRSGTDYTLTISSLQPEDFATYYCLQYASSPYTFGQGTKVEIKR
8 | 7.52e-12 | 2.58e-12 | 7.24e-12 | 5.15e-12 | 99.5 | 98.8 | 99.1 | 99.3 | 1880 | 0.000196 | 105000 |  | hz84C4-2.4 (antibody, human IgG4 S228P, kappa, V domains shown, Humanized, human IgG4 / kappa) VH: QVQLVQSGAEVKKPGASVKVSCKASGYYFTSYWMNWVRQAPGQGLEWMGMIHPYDSETRLAQKFKGRVTMTVDKSTSTVYMELSSLRSEDTAVYYCASSTTAFAYWGQGTLVTVSS VL: DIQMTQSPSSLSASVGDRVTITCRASQDIGNALNWLQQKPGKAPKRLIYATSSLDPGVPSRFSGSRSGTDYTLTISSLQPEDFATYYCLQYASSPYTFGQGTKVEIKR
9 | ~6.47e-12 | ~4.34e-12 | 3.42e-12 |  | 28.4 | 40.6 | 18.6 | 41.5 | 831 | 5.12e-05 | 61600 | 6.2 | hz84C4-2.3 (antibody, human IgG4 S228P, kappa, V domains shown, Humanized, human IgG4 / kappa) VH: QVQLVQSGAEVKKPGASVKVSCKASGYFFTSYWMNWVRQAPGQGLEWMGMIYPYDSETRYAQKFQGRVTMTVDKSTSTVYMELSSLRSEDTAVYYCASSTTAFAYWGQGTLVTVSS VL: DIQMTQSPSSLSASVGDRVTITCRASQDIGNALNWLQQKPGKAPKRLIYATSSLDPGVPSRFSGSRSGTDYTLTISSLQPEDFATYYCLQYASSPYTFGQGTKVEIKR
